B1: AtPS1–GFP (natural protein, Arabidopsis thaliana, UniProt O64668 1-453, looked up)
chain: MESSILDSLGVEIIGVMAPVSICMFLVVLLTYSLSVTSDPQIRSAANLIYIENPSDSTTVKLEGSLANAIVFVVLIAAVTFILVLLFYYNFTNFLKHYMRFSAFFVLGTMGGAIFLSIIQHFSIPVDSITCFILLFNFTILGTLSVFAGGIPIVLRQCYMVVMGIVVAAWFTKLPEWTTWFILVALALYDLVAVLAPGGPLKLLVELASSRDEELPAMVYEARPTVSSGNQRRNRGSSLRALVGGGGVSDSGSVELQAVRNHDVNQLGRENSHNMDYNAIAVRDIDNVDDGIGNGSRGGLERSPLVGSPSASEHSTSVGTRGNMEDRESVMDEEMSPLVELMGWGDNREEARGLEESDNVVDISNRGIKLGLGDFIFYSVLVGRAAMYDLMTVYACYLAIISGLGCTLILLSVYNRALPALPISIMLGVVFYFLTRLLMEPFVVGVTTNLMMF
notes: Arabidopsis thaliana presenilin 1 (AtPS1, At1g08700); FLIM-FRET donor; also called presenilin 1; source: A. thaliana leaf mesophyll protoplasts, transiently transfected (pSITE vector), in living cells; not shown: eGFP, C-terminal, kept
B2: AtPS2–GFP (natural protein, Arabidopsis thaliana, UniProt Q9SIK7 1-397, looked up)
chain: MDRNQRPRSILDSLGEELIAILTPVSICMFTVVLLVCILNSDPSSSSASFSSIATAAYSESDSDSSWDKFVGALLNSVVFVAAITVATFVLVLLFYLRCVKFLKFYMGFSAFIVLGNLGGEILVLLIDRFRFPIDSITFLILLFNFSVVGVFAVFMSKFSILITQGYLVWIGVLVAYFFTLLPEWTTWVLLVALALYDIAAVLLPVGPLRLLVEMAISRDEDIPALVYEARPVIRNDSRSVQRRVWREQRSSQNNANRNEVRVVESAEVEEEHVGSSERAEISVPLIDRRPEQAENSETFLEGIGLGSSGAIKLGLGDFIFYSVLVGRAAMYDLMTVYACYLAIIAGLGITLMLLSVYQKALPALPVSIMLGVVFYFLARLLLEVFVVQCSSNLVMF
notes: Arabidopsis thaliana presenilin 2 (AtPS2, At2g29900); cDNA made from leaf RNA; FLIM-FRET donor; also called presenilin 2; AtAtPS2–GFP; source: A. thaliana leaf mesophyll protoplasts, transiently transfected (pSITE vector), in living cells; not shown: eGFP, C-terminal, kept
B3: AtNCT–GFP (natural protein, Arabidopsis thaliana, UniProt Q8GUM5 29-676, looked up)
chain: DEITSIESVPDLQKLMYVAVDGFPCVRLLNLSGEIGCSNPGINKVVAPIIKLKDVKDLVQPHTILVTADEMEDFFTRVSTDLSFASKIGGVLVESGSNFQQKLKGFSPDKRFPQAQFSPYENVEYKWNSAASSIMWRNYNFPVYLLSESGISAVHEILSKKKMKHGTYTSDVAEFNMVMETTKAGTHNSEACLQEGTCLPLGGYSVWSSLPPISVSSSNNRKPVVLTVASMDTASFFRDKSFGADSPISGLVALLGAVDALSRVDGISNLKKQLVFLVLTGETWGYLGSRRFLHELDLHSDAVAGLSNTSIETVLEIGSVGKGLSGGINTFFAHKTRVSSVTNMTLDALKIAQDSLASKNIKILSADTANPGIPPSSLMAFMRKNPQTSAVVLEDFDTNFVNKFYHSHLDDLSNINSSSVVAAASVVARTLYILASDNKDTSNSALGSIHVNASFVEELLTCLLACEPGLSCNLVKDYISPTNTCPGNYAGVILGEPSSKPYLGYVGDVSRFLWNFLADKTSVQKGNTTSVCSKGVCSKTDEVCIKAESNKEGTCVVSTTRYVPAYSTRLKYNDGAWTILPQNSSDSMGMVDPVWTESNWDTLRVHVYTVQHSAYDNAVLVAGITVTTLAYIGILAAKSIITKALKQD
notes: Arabidopsis thaliana nicastrin (AtNCT, At3g52640); FLIM-FRET donor; also called nicastrin; source: A. thaliana leaf mesophyll protoplasts, transiently transfected (pSITE vector), in living cells; not shown: eGFP, C-terminal, kept
B4: AtPEN-2–GFP (natural protein, Arabidopsis thaliana, UniProt Q9FY84 1-146, looked up)
chain: MEATRSDDPSLNPIRNRNPNPNPNPNPLSTIISSAQVWPTIDGPLGLTEEASVDYARRFYKFGFALLPWLWFVNCFYFWPVLRHSRAFPQIRNYVVRSAIGFSVFTALLSAWALTFSIGGEQLFGPLYDKLVMYNVADRLGLSGLA
notes: Arabidopsis thaliana PEN-2 (AtPEN-2, At5g09310); FLIM-FRET donor; also called presenilin enhancer 2; source: A. thaliana leaf mesophyll protoplasts, transiently transfected (pSITE vector), in living cells; not shown: eGFP, C-terminal, kept

Assays:
Experiment in all cases: FRET or BRET; FLIM-FRET in living A. thaliana leaf mesophyll protoplasts that co-express the two fusions; eGFP donor, mRFP acceptor; E=1−τDA/τD×100%; FRET efficiency above the threshold of 5% (free eGFP with free mRFP) taken as putative positive interaction
Conditions in all cases: partners not purified
[1] = target: T1, AtNCT–RFP (Arabidopsis thaliana, UniProt Q8GUM5 29-676)
T1 construct: Arabidopsis thaliana nicastrin (AtNCT, At3g52640); FLIM-FRET acceptor; also called nicastrin; source: A. thaliana leaf mesophyll protoplasts, transiently transfected (pSITE vector), in living cells; not shown: mRFP, C-terminal, kept
T1 sequence (looked up): B3 chain

[2] = target: T2, AtPEN-2–RFP (Arabidopsis thaliana, UniProt Q9FY84 1-146)
T2 construct: Arabidopsis thaliana PEN-2 (AtPEN-2, At5g09310); FLIM-FRET acceptor; also called presenilin enhancer 2; source: A. thaliana leaf mesophyll protoplasts, transiently transfected (pSITE vector), in living cells; not shown: mRFP, C-terminal, kept
T2 sequence (looked up): B4 chain

[3] = target: T3, AtAPH-1–RFP (Arabidopsis thaliana, UniProt Q8L9G7 1-250)
T3 construct: Arabidopsis thaliana APH-1 (AtAPH-1, At2g31440); FLIM-FRET acceptor; also called anterior pharynx-defective 1; source: A. thaliana leaf mesophyll protoplasts, transiently transfected (pSITE vector), in living cells; not shown: mRFP, C-terminal, kept
T3 sequence (Q8L9G7 whole entry): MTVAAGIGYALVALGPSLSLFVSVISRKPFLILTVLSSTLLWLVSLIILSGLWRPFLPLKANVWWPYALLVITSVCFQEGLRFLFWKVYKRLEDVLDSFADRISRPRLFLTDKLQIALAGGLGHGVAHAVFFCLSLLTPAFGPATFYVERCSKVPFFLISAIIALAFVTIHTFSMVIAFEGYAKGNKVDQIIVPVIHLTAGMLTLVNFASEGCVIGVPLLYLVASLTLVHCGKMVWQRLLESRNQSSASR

| Binder | FRET efficiency, E_(FRET) [1] [%] | FRET efficiency, E_(FRET) [2] [%] | FRET efficiency, E_(FRET) [3] [%] |
| --- | --- | --- | --- |
| B1 | 19 | 24 | 19 |
| B2 |  | 32 | 20 |
| B3 |  |  | 14 |
| B4 | 11 |  |  |
